The text below walks through data of publication PMC7614990 (Science (New York, N.Y.), 2021).

Sequences and labels used below:
B3: SF3B1 (natural protein)
chain: MAKIAKTHEDIEAQIREIQGKKAALDEAQGVGLDSTGYYDQEIYGGSDSRFAGYVTSIAATELEDDDDDYSSSTSLLGQKKPGYHAPVALLNDIPQSTEQYDPFAEHRPPKIADREDEYKKHRRTMIISPERLDPFADGGKTPDPKMNARTYMDVMREQHLTKEEREIRQQLAEKAKAGELKVVNGAAASQPPSKRKRRWDQTADQTPGATPKKLSSWDQAETPGHTPSLRWDETPGRAKGSETPGATPGSKIWDPTPSHTPAGAATPGRGDTPGHATPGHGGATSSARKNRWDETPKTERDTPGHGSGWAETPRTDRGGDSIGETPTPGASKRKSRWDETPASQMGGSTPVLTPGKTPIGTPAMNMATPTPGHIMSMTPEQLQAWRWEREIDERNRPLSDEELDAMFPEGYKVLPPPAGYVPIRTPARKLTATPTPLGGMTGFHMQTEDRTMKSVNDQPSGNLPFLKPDDIQYFDKLLVDVDESTLSPEEQKERKIMKLLLKIKNGTPPMRKAALRQITDKAREFGAGPLFNQILPLLMSPTLEDQERHLLVKVIDRILYKLDDLVRPYVHKILVVIEPLLIDEDYYARVEGREIISNLAKAAGLATMISTMRPDIDNMDEYVRNTTARAFAVVASALGIPSLLPFLKAVCKSKKSWQARHTGIKIVQQIAILMGCAILPHLRSLVEIIEHGLVDEQQKVRTISALAIAALAEAATPYGIESFDSVLKPLWKGIRQHRGKGLAAFLKAIGYLIPLMDAEYANYYTREVMLILIREFQSPDEEMKKIVLKVVKQCCGTDGVEANYIKTEILPPFFKHFWQHRMALDRRNYRQLVDTTVELANKVGAAEIISRIVDDLKDEAEQYRKMVMETIEKIMGNLGAADIDHKLEEQLIDGILYAFQEQTTEDSVMLNGFGTVVNALGKRVKPYLPQICGTVLWRLNNKSAKVRQQAADLISRTAVVMKTCQEEKLMGHLGVVLYEYLGEEYPEVLGSILGALKAIVNVIGMHKMTPPIKDLLPRLTPILKNRHEKVQENCIDLVGRIADRGAEYVSAREWMRICFELLELLKAHKKAIRRATVNTFGYIAKAIGPHDVLATLLNNLKVQERQNRVCTTVAIAIVAETCSPFTVLPALMNEYRVPELNVQNGVLKSLSFLFEYIGEMGKDYIYAVTPLLEDALMDRDLVHRQTASAVVQHMSLGVYGFGCEDSLNHLLNYVWPNVFETSPHVIQAVMGALEGLRVAIGPCRMLQYCLQGLFHPARKVRDVYWKIYNSIYIGSQDALIAHYPRIYNDDKNTYIRYELDYIL

Common to all, as to experiment: cryo-EM structure
In test [1] the target is B3.
Test [2] concerns the target SF3B6 (human (endogenous in FreeStyle 293-F), UniProt Q9Y3B4 1-125).
The target of test [3] is PHF5A (human (endogenous in FreeStyle 293-F), UniProt Q7RTV0 1-110).

B1: SF3B3 (natural protein)
chain: MFLYNLTLQRATGISFAIHGNFSGTKQQEIVVSRGKILELLRPDPNTGKVHTLLTVEVFGVIRSLMAFRLTGGTKDYIVVGSDSGRIVILEYQPSKNMFEKIHQETFGKSGCRRIVPGQFLAVDPKGRAVMISAIEKQKLVYILNRDAAARLTISSPLEAHKANTLVYHVVGVDVGFENPMFACLEMDYEEADNDPTGEAAANTQQTLTFYELDLGLNHVVRKYSEPLEEHGNFLITVPGGSDGPSGVLICSENYITYKNFGDQPDIRCPIPRRRNDLDDPERGMIFVCSATHKTKSMFFFLAQTEQGDIFKITLETDEDMVTEIRLKYFDTVPVAAAMCVLKTGFLFVASEFGNHYLYQIAHLGDDDEEPEFSSAMPLEEGDTFFFQPRPLKNLVLVDELDSLSPILFCQIADLANEDTPQLYVACGRGPRSSLRVLRHGLEVSEMAVSELPGNPNAVWTVRRHIEDEFDAYIIVSFVNATLVLSIGETVEEVTDSGFLGTTPTLSCSLLGDDALVQVYPDGIRHIRADKRVNEWKTPGKKTIVKCAVNQRQVVIALTGGELVYFEMDPSGQLNEYTERKEMSADVVCMSLANVPPGEQRSRFLAVGLVDNTVRIISLDPSDCLQPLSMQALPAQPESLCIVEMGGTEKQDELGERGSIGFLYLNIGLQNGVLLRTVLDPVTGDLSDTRTRYLGSRPVKLFRVRMQGQEAVLAMSSRSWLSYSYQSRFHLTPLSYETLEFASGFASEQCPEGIVAISTNTLRILALEKLGAVFNQVAFPLQYTPRKFVIHPESNNLIIIETDHNAYTEATKAQRKQQMAEEMVEAAGEDERELAAEMAAAFLNENLPESIFGAPKAGNGQWASVIRVMNPIQGNTLDLVQLEQNEAAFSVAVCRFSNTGEDWYVLVGVAKDLILNPRSVAGGFVYTYKLVNNGEKLEFLHKTPVEEVPAAIAPFQGRVLIGVGKLLRVYDLGKKKLLRKCENKHIANYISGIQTIGHRVIVSDVQESFIWVRYKRNENQLIIFADDTYPRWVTTASLLDYDTVAGADKFGNICVVRLPPNTNDEVDEDPTGNKALWDRGLLNGASQKAEVIMNYHVGETVLSLQKTTLIPGGSESLVYTTLSGGIGILVPFTSHEDHDFFQHVEMHLRSEHPPLCGRDHLSFRSYYFPVKNVIDGDLCEQFNSMEPNKQKNVSEELDRTPPEVSKKLEDIRTRYAF
As for B1, the binding result in test [1] is “binds”.

B2: HTATSF1 in the 17S U2 snRNP eluted with 3C protease (natural protein)
chain: SGTNLDGNDEFDEQLRMQELYGDGKDGDTQTDAGGEPDSLGQQPTDTPYEWDLDKKAWFPKITEDFIATYQANYGFSNDGASSSTANVEDVHARTAEEPPQEKAPEPTDARKKGEKRKAESGWFHVEEDRNTNVYVSGLPPDITVDEFIQLMSKFGIIMRDPQTEEFKVKLYKDNQGNLKGDGLCCYLKRESVELALKLLDEDEIRGYKLHVEVAKFQLKGEYDASKKKKKCKDYKKKLSMQQKQLDWRPERRAGPSRMRHERVVIIKNMFHPMDFEDDPLVLNEIREDLRVECSKFGQIRKLLLFDRHPDGVASVSFRDPEEADYCIQTLDGRWFGGRQITAQAWDGTTDYQVEETSREREERLRGWEAFLNAPEANRGLRRSDSVSASERAGPSRARHFSEHPSTSKMNAQETATGMAFEEPIDEKKFEKTEDGGEFEEGASENNAKESSPEKEAEEGCPEKESEEGCPKRGFEGSCSQKESEEGNPVRGSEEDSPKKESKKKTLKNDCEENGLAKESEDDLNKESEEEVGPTKESEEDDSEKESDEDCSEKQSEDGSEREFEENGLEKDLDEEGSEKELHENVLDKELEENDSENSEFEDDGSEKVLDEEGSEREFDEDSDEKEEEEDTYEKVFDDESDEKEDEEYADEKGLEAADKKAEEGDADEKLFEESDDKEDEDADGKEVEDADEKLFEDDDSNEKLFDEEEDSSEKLFDDSDERGTLGGFGSVEEGPLSTGSSFILSSDDDDDDI
With B2, the binding result in test [1] was “binds”. Regarding B3, the binding result in test [2] and in test [3] was “binds” each time.
